From PMC4176350, “A high security double lock and key mechanism in HUH relaxases controls oriT-processing for plasmid conjugation”

Target: T1, TrwCR (TrwC relaxase domain, TrwC-N293) (Escherichia coli? (plasmid R388), UniProt Q47673 1-293)
T1 sequence: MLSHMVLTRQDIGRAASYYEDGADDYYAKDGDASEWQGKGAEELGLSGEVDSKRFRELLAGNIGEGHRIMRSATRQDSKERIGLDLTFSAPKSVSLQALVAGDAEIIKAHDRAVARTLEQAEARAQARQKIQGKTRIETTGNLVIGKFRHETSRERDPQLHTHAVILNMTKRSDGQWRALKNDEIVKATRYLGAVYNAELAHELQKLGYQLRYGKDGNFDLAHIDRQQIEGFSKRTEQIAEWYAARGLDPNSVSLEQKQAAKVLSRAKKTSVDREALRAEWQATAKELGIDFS
Test: X-ray crystallography; 1:1.5 protein:DNA; Crystallization: TrwCR 6 mg/ml in 200 mM NaCl, 20 mM Tris-HCl pH 7.5, 1 mM DTT, 0.5 mM EDTA; reservoir 2 M ammonium phosphate, 0.1 M Tris-HCl pH 8.5, 22 C
Conditions: protein: recombinant; hairpin with 3' single-stranded tail

Binder: GCACCGAAAGGTGCGTATTCTTGGT (structured_DNA) [RIV(23+2), nic mutant IV]
- binding result: binds
